In patent US20210238260:

B1: FIXa-D104N/K106S/I251S/R318Y/R338E/R403E/E410N (protein)
chain 1: YNSGKLEEFVQGNLERECMEEKCSFEEAREVFENTERTTEFWKQYVDGDQCESNPCLNGGSCKDDINSYECWCPFGFEGKNCELDVTCNIKNGRCEQFCKNSANNSVVCSCTEGYRLAENQKSCEPAVPFPCGRVSVSQTSKLTR
chain 2: VVGGEDAKPGQFPWQVVLNGKVDAFCGGSIVNEKWIVTAAHCVETGVKITVVAGEHNIEETEHTEQKRNVSRIIPHHNYNAAINKYNHDIALLELDEPLVLNSYVTPICIADKEYTNIFLKFGSGYVSGWGRVFHKGYSALVLQYLRVPLVDRATCLESTKFTIYNNMFCAGFHEGGRDSCQGDSGGPHVTEVEGTSFLTGIISWGEECAMKGKYGIYTKVSEYVNWIKNKTKLT
B2: FIXa K228N/K247N/N249S/R318Y/R338E/R403E/E410N (protein)
chain 1: YNSGKLEEFVQGNLERECMEEKCSFEEAREVFENTERTTEFWKQYVDGDQCESNPCLNGGSCKDDINSYECWCPFGFEGKNCELDVTCNIKNGRCEQFCKNSADNKVVCSCTEGYRLAENQKSCEPAVPFPCGRVSVSQTSKLTR
chain 2: VVGGEDAKPGQFPWQVVLNGKVDAFCGGSIVNEKWIVTAAHCVETGVNITVVAGEHNIEETEHTEQNRSVIRIIPHHNYNAAINKYNHDIALLELDEPLVLNSYVTPICIADKEYTNIFLKFGSGYVSGWGRVFHKGYSALVLQYLRVPLVDRATCLESTKFTIYNNMFCAGFHEGGRDSCQGDSGGPHVTEVEGTSFLTGIISWGEECAMKGKYGIYTKVSEYVNWIKNKTKLT
B3: FIXa D104N/K106S/K228N/K247N/N249S/R318Y/R338E/R403E/E410N (protein)
chain 1: YNSGKLEEFVQGNLERECMEEKCSFEEAREVFENTERTTEFWKQYVDGDQCESNPCLNGGSCKDDINSYECWCPFGFEGKNCELDVTCNIKNGRCEQFCKNSANNSVVCSCTEGYRLAENQKSCEPAVPFPCGRVSVSQTSKLTR
chain 2: VVGGEDAKPGQFPWQVVLNGKVDAFCGGSIVNEKWIVTAAHCVETGVNITVVAGEHNIEETEHTEQNRSVIRIIPHHNYNAAINKYNHDIALLELDEPLVLNSYVTPICIADKEYTNIFLKFGSGYVSGWGRVFHKGYSALVLQYLRVPLVDRATCLESTKFTIYNNMFCAGFHEGGRDSCQGDSGGPHVTEVEGTSFLTGIISWGEECAMKGKYGIYTKVSEYVNWIKNKTKLT
B4: FIXa Y155F/K228N/K247N/N249S (protein)
chain 1: YNSGKLEEFVQGNLERECMEEKCSFEEAREVFENTERTTEFWKQYVDGDQCESNPCLNGGSCKDDINSYECWCPFGFEGKNCELDVTCNIKNGRCEQFCKNSADNKVVCSCTEGYRLAENQKSCEPAVPFPCGRVSVSQTSKLTR
chain 2: VVGGEDAKPGQFPWQVVLNGKVDAFCGGSIVNEKWIVTAAHCVETGVNITVVAGEHNIEETEHTEQNRSVIRIIPHHNYNAAINKYNHDIALLELDEPLVLNSYVTPICIADKEYTNIFLKFGSGYVSGWGRVFHKGRSALVLQYLRVPLVDRATCLRSTKFTIYNNMFCAGFHEGGRDSCQGDSGGPHVTEVEGTSFLTGIISWGEECAMKGKYGIYTKVSRYVNWIKEKTKLT
B5: FIXa-R318Y/R338E/R403E/T412A (protein)
chain 1: YNSGKLEEFVQGNLERECMEEKCSFEEAREVFENTERTTEFWKQYVDGDQCESNPCLNGGSCKDDINSYECWCPFGFEGKNCELDVTCNIKNGRCEQFCKNSADNKVVCSCTEGYRLAENQKSCEPAVPFPCGRVSVSQTSKLTR
chain 2: VVGGEDAKPGQFPWQVVLNGKVDAFCGGSIVNEKWIVTAAHCVETGVKITVVAGEHNIEETEHTEQKRNVIRIIPHHNYNAAINKYNHDIALLELDEPLVLNSYVTPICIADKEYTNIFLKFGSGYVSGWGRVFHKGYSALVLQYLRVPLVDRATCLESTKFTIYNNMFCAGFHEGGRDSCQGDSGGPHVTEVEGTSFLTGIISWGEECAMKGKYGIYTKVSEYVNWIKEKAKLT

Assays:
[1] = molecular target: plasma purified human AT-III (antithrombin III); test: AT-III/UFH inhibition K0.5, ratio to Catalyst Biosciences WT FIXa
[2] = molecular target: plasma purified human antithrombin III (AT-III), as complex with unfractionated heparin; test: ratio of K0.5 (lower limit) to Catalyst Biosciences WT FIXa, AT-III/UFH inhibition

Factor X (FX), P00742, sequence (P00742 whole entry, looked up): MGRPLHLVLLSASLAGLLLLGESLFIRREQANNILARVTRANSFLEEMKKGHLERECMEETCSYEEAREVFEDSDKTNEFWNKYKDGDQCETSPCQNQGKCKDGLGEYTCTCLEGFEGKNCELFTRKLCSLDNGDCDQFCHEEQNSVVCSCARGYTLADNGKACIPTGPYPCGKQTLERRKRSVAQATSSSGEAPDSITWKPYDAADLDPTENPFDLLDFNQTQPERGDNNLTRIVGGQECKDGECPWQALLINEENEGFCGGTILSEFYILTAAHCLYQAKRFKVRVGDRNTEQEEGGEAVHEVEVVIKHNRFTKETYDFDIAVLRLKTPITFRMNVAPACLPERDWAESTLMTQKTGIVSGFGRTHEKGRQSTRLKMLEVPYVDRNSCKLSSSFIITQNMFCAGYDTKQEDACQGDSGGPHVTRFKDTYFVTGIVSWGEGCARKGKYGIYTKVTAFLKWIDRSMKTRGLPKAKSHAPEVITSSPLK
Factor X, P00742, sequence (P00742 whole entry, looked up): as above

| Protein | K0.5-mut/K0.5-wt [1] | K0.5-mut/K0.5-wt [2] | % of WT kcat/KM (Factor X (FX), P00742) [%] | kcat (Factor X (FX), P00742) [s⁻¹] | kcat/KM (Factor X (FX), P00742) [M⁻¹ s⁻¹] | KM (FX activation by FIXa in the Xase complex with FVIIIa, PC/PS vesicles and Ca2+) (Factor X (FX), P00742) [µM] | % of WT kcat/KM (Factor X, P00742) [%] | kcat/KM (Factor X, P00742) [M⁻¹ s⁻¹] |
| --- | --- | --- | --- | --- | --- | --- | --- | --- |
| B1 | > 517 | 517 | 263 | 5.5 | 1.2e+08 | – | – | – |
| B2 | – | – | – | – | – | 0.0497 | 352 | 1.6e+08 |
| B3 | – | – | – | – | – | 0.0533 | 239 | 1.1e+08 |
| B4 | – | – | – | – | – | 0.0792 | 115 | 5.3e+07 |
| B5 | > 517 | 517 | – | – | – | – | – | – |
